According to patent US20190359693A1 (Janssen / Centocor, published 2019):

Legend:
[1] = target: T1, HA of H3N2 A/HK/1/68 (influenza A virus, UniProt Q91MA7 17-530); assay: BLI steady state
[2] = target: HA of H7N7 A/Common Teal/MPF139/07 (influenza A virus); assay: cell-based or functional assay
[3] = target: HA of H7N9 A/Anhui/1/13 (influenza A virus); assay: cell-based or functional assay
[4] = target: HA of H7N9 A/Shanghai/1/13 (influenza A virus); assay: cell-based or functional assay
[5] = target: HA of H7N9 A/Shanghai/2/13 (influenza A virus); assay: cell-based or functional assay
[6] = target: HA of H10N8 A/Jiangxi/346/2013 (influenza A virus); assay: cell-based or functional assay
[7] = target: HA of H10N3 A/Common Teal/MPH11/08 (influenza A virus); assay: cell-based or functional assay
[8] = target: HA of H10N9 A/Northern Shoveler/MPE2531/08 (influenza A virus); assay: cell-based or functional assay
[9] = target: HA of B/Florida/04/2006 (Yamagata) (influenza B virus); assay: cell-based or functional assay
[10] = target: T1, HA of H3N2 A/HK/1/68; assay: cell-based or functional assay
[11] = target: T2, HA of H7N7 A/Netherlands/219/2003 (influenza A virus, UniProt P36346 19-563); assay: cell-based or functional assay
[12] = target: HA of H2N2 A/Guiyang/1/57 (influenza A virus); assay: cell-based or functional assay
[13] = target: HA of H2N2 A/WF/HK/MPU3156/05 (influenza A virus); assay: cell-based or functional assay
[14] = target: HA of H4 A/WF/HK/MPA892/06 (influenza A virus); assay: cell-based or functional assay
[15] = target: HA of H7N7 A/PR8 H7N7-NY (influenza A virus); assay: cell-based or functional assay
[16] = target: HA of H10N7 A/Chick/Germany/N/49 (influenza A virus); assay: cell-based or functional assay
[17] = target: HA of H1N1 A/Mississippi/03/01 274H (influenza A virus); assay: cell-based or functional assay
[18] = target: HA of H1N1 A/Solomon Islands/3/2006 (IVR 145) (influenza A virus); assay: cell-based or functional assay
[19] = target: HA of H1N1 A/WSN/33 (influenza A virus, UniProt P03454 18-565); assay: cell-based or functional assay
[20] = target: HA of H1N1 A/HK/54/98 (influenza A virus); assay: cell-based or functional assay
[21] = target: HA of H1N1 A/Christchurch/16/10 (influenza A virus); assay: cell-based or functional assay
[22] = target: HA of H1N2 A/Env/HK/MPU3156/05 (influenza A virus); assay: cell-based or functional assay
[23] = target: HA of H5N1 A/Indonesia/5/05 (influenza A virus); assay: cell-based or functional assay
[24] = target: HA of H5N2 A/Eurasian Wigeon/MPF461/07 (influenza A virus); assay: cell-based or functional assay
[25] = target: HA of H5N2 A/Eurasian Wigeon/HK/MPF333/07 (influenza A virus); assay: cell-based or functional assay
[26] = target: HA of H2N2 A/AnnArbor/23/57 (influenza A virus); assay: cell-based or functional assay
[27] = target: HA of H2N2 A/Env/HK/MPU3156/05 (influenza A virus); assay: cell-based or functional assay
[28] = target: HA of H6N1 A/Eurasian Wigeon/MPG1884/09 (influenza A virus); assay: cell-based or functional assay
[29] = target: HA of H6N1 A/Taiwan/2/2013 (influenza A virus); assay: cell-based or functional assay
[30] = target: HA of H6N8 A/Eurasian Wigeon/MPD411/07 (influenza A virus); assay: cell-based or functional assay
[31] = target: HA of H11N9 A/Northern Pintail/MPC2085/07 (influenza A virus); assay: cell-based or functional assay
[32] = target: HA of H9N2 A/Ck/HK/SSP176/09 (influenza A virus); assay: cell-based or functional assay
[33] = target: HA of H9N2 A/Great Cormorant/MP2934/04 (influenza A virus); assay: cell-based or functional assay
[34] = target: HA of H9N2 A/HK/466419/09 (influenza A virus); assay: cell-based or functional assay
[35] = target: HA of H8N4 A/Eurasian Wigeon/MPH571/08 (influenza A virus); assay: cell-based or functional assay
[36] = target: HA of H8N2 A/Env/MPJ1258/09 (influenza A virus); assay: cell-based or functional assay
[37] = target: HA of H12N5 A/Env/MPK659/09 (influenza A virus); assay: cell-based or functional assay
[38] = target: HA of H3N2 A/Fukui/45/04 (influenza A virus); assay: cell-based or functional assay
[39] = target: HA of H3N2 A/Aichi/2/68 (influenza A virus, UniProt P03437 17-566); assay: cell-based or functional assay
[40] = target: HA of H3N2 A/Johannesburg/33/94 (influenza A virus); assay: cell-based or functional assay
[41] = target: HA of H3N2 A/Perth/16/09 (influenza A virus); assay: cell-based or functional assay
[42] = target: HA of H3N2 A/Victoria/210/09 (influenza A virus); assay: cell-based or functional assay
[43] = target: HA of H4N1 A/Northern Pintail/MPB1368/06 (influenza A virus); assay: cell-based or functional assay
[44] = target: HA of H4N6 A/Great Cormorant/MPB1683/06 (influenza A virus); assay: cell-based or functional assay
[45] = target: HA of H14N5 A/Mallard/Astrakhan/263/1982 (influenza A virus); assay: cell-based or functional assay
[46] = target: HA of H7N7 A/Northern Shoveler/MPF518/08 (influenza A virus); assay: cell-based or functional assay
[47] = target: T2, HA of H7N7 A/Netherlands/219/2003; assay: AlphaLISA competition vs CR9114
[48] = target: HA of B/Malaysia/2506/04 (Victoria) (influenza B virus); assay: cell-based or functional assay
[49] = target: HA of B/Harbin/7/94 (Yamagata) (influenza B virus); assay: cell-based or functional assay
[50] = target: HA of B/Massachusetts/02/12 (Yamagata) (influenza B virus); assay: cell-based or functional assay
[51] = target: HA of B/Lee/40 (influenza B virus, UniProt P03460 16-552); assay: cell-based or functional assay
[52] = target: HA of B/Harbin/7/94 (Yamagata) (influenza B virus); assay: cell-based or functional assay; remark: listed apart in the source
[53] = target: HA of H5N1 A/Vietnam/1194/04 (influenza A virus); assay: cell-based or functional assay

B1: SD1038 (VHH)
VHH: EVQLVESGGGLVQPGGSLRLSCAVSISIFDIYAMDWYRQAPGKQRDLVATSFRDGSTNYADSVKGRFTISRDNAKNTLYLQMNSLKPEDTAVYLCHVSLYRDPLGVAGGMGVYWGKGALVTVSS
notes: llama sdAb
Kd [1]: 44 nM
VNA titer [2]: 359 nM
VNA titer [3]: 253 nM
VNA titer [4]: 503 nM
VNA titer [5]: 239 nM
VNA titer [6]: 239 nM
VNA titer [7]: 301 nM
VNA titer [8]: 327 nM
VNA titer [9]: > 1000 nM
VNA titer [10]: 40.2 nM
VNA titer [11]: 181 nM
VNA titer [12]: 102 nM
VNA titer [13]: 31.4 nM
VNA titer [14]: > 1000 nM
VNA titer [15]: 80.6 nM
VNA titer [16]: 469 nM
VNA titer [17]: 4.7 nM
VNA titer [18]: 4.1 nM
VNA titer [19]: 5 nM
VNA titer [20]: 16.5 nM
VNA titer [21]: 2.6 nM
VNA titer [22]: 40.5 nM
VNA titer [23]: 32.8 nM
VNA titer [24]: 18.8 nM
VNA titer [25]: 11 nM
VNA titer [26]: 33 nM
VNA titer [27]: 23.2 nM
VNA titer [28]: 16.2 nM
VNA titer [29]: 15.3 nM
VNA titer [30]: 13.2 nM
VNA titer [31]: 160 nM
VNA titer [32]: 90.8 nM
VNA titer [33]: 105 nM
VNA titer [34]: 700 nM
VNA titer [35]: 53.4 nM
VNA titer [36]: 58.7 nM
VNA titer [37]: > 1000 nM
VNA titer [38]: 632 nM
VNA titer [39]: 127 nM
VNA titer [40]: 443 nM
VNA titer [41]: 253 nM
VNA titer [42]: 253 nM
VNA titer [43]: 485 nM
VNA titer [44]: 275 nM
VNA titer [45]: 253 nM
VNA titer [46]: 441 nM
pIC50 [47]: 7.5

B2: SD1084 (VHH)
VHH: EVQLVESGGGLVQPGGSLKLSCAASGFTFSTSWMYWLRQAPGKGLEWVSVINTDGGTYYADSVKDRFTISRDNAKDTLYLQMSSLKSEDTAVYYCAKDWGGPEPTRGQGTQVTVSS
VNA titer [48]: 34.9 nM
VNA titer [49]: 240 nM
VNA titer [50]: 40 nM
VNA titer [51]: > 1000 nM
hemagglutination inhibition titer [52]: 1.1 µg/mL
hemagglutination inhibition titer [53]: > 50 µg/mL
